{"source": "patent US8673848", "about": "(Novartis, dated 2014)", "binders": {"B1": {"name": "Example 19: pE-R-P-R-L-C-H-F-G-P-Nle-C-Phenethylamine (peptide)", "peptide": "[pGlu]RPRLCHFGP[Nle]C-NHPhenethyl", "modifications": "disulfide 6-12", "SMILES": "CCCC[C@@H]1NC(=O)[C@@H]2CCCN2C(=O)CNC(=O)[C@H](Cc2ccccc2)NC(=O)[C@H](Cc2c[nH]cn2)NC(=O)[C@@H](NC(=O)[C@H](CC(C)C)NC(=O)[C@H](CCCNC(=N)N)NC(=O)[C@@H]2CCCN2C(=O)[C@H](CCCNC(=N)N)NC(=O)[C@@H]2CCC(=O)N2)CSSC[C@@H](C(=O)NCCc2ccccc2)NC1=O"}, "B2": {"name": "Example 11: p-Isn-R-P-R-L-C-Aib-K-G-P-Nle-C-f-OH (peptide)", "peptide": "[Inp]RPRLC[Aib]KGP[Nle]C[dF]-OH", "modifications": "disulfide 6-12; N-terminus assumed", "SMILES": "CCCC[C@@H]1NC(=O)[C@@H]2CCCN2C(=O)CNC(=O)[C@H](CCCCN)NC(=O)C(C)(C)NC(=O)[C@@H](NC(=O)[C@H](CC(C)C)NC(=O)[C@H](CCCNC(=N)N)NC(=O)[C@@H]2CCCN2C(=O)[C@H](CCCNC(=N)N)NC(=O)C2CCNCC2)CSSC[C@@H](C(=O)N[C@H](Cc2ccccc2)C(=O)O)NC1=O"}, "B3": {"name": "Example 21: pE-R-P-R-L-C-H-(4-NH-Isn)-G-P-Nle-C-F-OH (peptide)", "peptide": "[pGlu]RPRLCH[Api]GP[Nle]CF-OH", "modifications": "disulfide 6-12", "SMILES": "CCCC[C@@H]1NC(=O)[C@@H]2CCCN2C(=O)CNC(=O)C2(CCNCC2)NC(=O)[C@H](Cc2c[nH]cn2)NC(=O)[C@@H](NC(=O)[C@H](CC(C)C)NC(=O)[C@H](CCCNC(=N)N)NC(=O)[C@@H]2CCCN2C(=O)[C@H](CCCNC(=N)N)NC(=O)[C@@H]2CCC(=O)N2)CSSC[C@@H](C(=O)N[C@@H](Cc2ccccc2)C(=O)O)NC1=O"}, "B4": {"name": "Example 20: pE-R-P-R-L-C-H-K-Aib-P-Nle-C-F-OH (peptide)", "peptide": "[pGlu]RPRLCHK[Aib]P[Nle]CF-OH", "modifications": "disulfide 6-12", "SMILES": "CCCC[C@@H]1NC(=O)[C@@H]2CCCN2C(=O)C(C)(C)NC(=O)[C@H](CCCCN)NC(=O)[C@H](Cc2c[nH]cn2)NC(=O)[C@@H](NC(=O)[C@H](CC(C)C)NC(=O)[C@H](CCCNC(=N)N)NC(=O)[C@@H]2CCCN2C(=O)[C@H](CCCNC(=N)N)NC(=O)[C@@H]2CCC(=O)N2)CSSC[C@@H](C(=O)N[C@@H](Cc2ccccc2)C(=O)O)NC1=O"}, "B5": {"name": "Example 15: pE-R-P-R-L-C-F-K-G-P-Nle-C-F-OH (peptide)", "peptide": "[pGlu]RPRLCFKGP[Nle]CF-OH", "modifications": "disulfide 6-12", "SMILES": "CCCC[C@@H]1NC(=O)[C@@H]2CCCN2C(=O)CNC(=O)[C@H](CCCCN)NC(=O)[C@H](Cc2ccccc2)NC(=O)[C@@H](NC(=O)[C@H](CC(C)C)NC(=O)[C@H](CCCNC(=N)N)NC(=O)[C@@H]2CCCN2C(=O)[C@H](CCCNC(=N)N)NC(=O)[C@@H]2CCC(=O)N2)CSSC[C@@H](C(=O)N[C@@H](Cc2ccccc2)C(=O)O)NC1=O"}, "B6": {"name": "Example 10: pE-R-P-R-L-C-Aib-K-G-P-Nle-C-f-OH (peptide)", "peptide": "[pGlu]RPRLC[Aib]KGP[Nle]C[dF]-OH", "modifications": "disulfide 6-12", "SMILES": "CCCC[C@@H]1NC(=O)[C@@H]2CCCN2C(=O)CNC(=O)[C@H](CCCCN)NC(=O)C(C)(C)NC(=O)[C@@H](NC(=O)[C@H](CC(C)C)NC(=O)[C@H](CCCNC(=N)N)NC(=O)[C@@H]2CCCN2C(=O)[C@H](CCCNC(=N)N)NC(=O)[C@@H]2CCC(=O)N2)CSSC[C@@H](C(=O)N[C@H](Cc2ccccc2)C(=O)O)NC1=O"}, "B7": {"name": "Example 2: pE-R-P-R-L-K-H-F-G-P-Nle-E-Phenethylamine (peptide)", "peptide": "[pGlu]RPRLKHFGP[Nle]E", "modifications": "lactam 6-12 (inferred); not fully specified (C-terminus); printed as pE-R-P-R-L-K-H-F-G-P-Nle-E-Phenethylamine"}, "B8": {"name": "Example 17: H-R-R-P-R-L-C-H-K-G-P-Nle-C-F-OH (peptide)", "peptide": "H-RRPRLCHKGP[Nle]CF-OH", "modifications": "disulfide 6-12", "SMILES": "CCCC[C@@H]1NC(=O)[C@@H]2CCCN2C(=O)CNC(=O)[C@H](CCCCN)NC(=O)[C@H](Cc2c[nH]cn2)NC(=O)[C@@H](NC(=O)[C@H](CC(C)C)NC(=O)[C@H](CCCNC(=N)N)NC(=O)[C@@H]2CCCN2C(=O)[C@H](CCCNC(=N)N)NC(=O)[C@@H](N)CCCNC(=N)N)CSSC[C@@H](C(=O)N[C@@H](Cc2ccccc2)C(=O)O)NC1=O"}, "B9": {"name": "Example 18: H-Isn-R-P-R-L-C-H-K-G-P-Nle-C-F-OH (peptide)", "peptide": "H-[Inp]RPRLCHKGP[Nle]CF-OH", "modifications": "disulfide 6-12", "SMILES": "CCCC[C@@H]1NC(=O)[C@@H]2CCCN2C(=O)CNC(=O)[C@H](CCCCN)NC(=O)[C@H](Cc2c[nH]cn2)NC(=O)[C@@H](NC(=O)[C@H](CC(C)C)NC(=O)[C@H](CCCNC(=N)N)NC(=O)[C@@H]2CCCN2C(=O)[C@H](CCCNC(=N)N)NC(=O)C2CCNCC2)CSSC[C@@H](C(=O)N[C@@H](Cc2ccccc2)C(=O)O)NC1=O"}, "B10": {"name": "Example 14: pE-R-P-R-Cha-C-H-K-G-P-Cha-C-F-OH (peptide)", "peptide": "[pGlu]RPR[Cha]CHKGP[Cha]CF-OH", "modifications": "disulfide 6-12", "SMILES": "N=C(N)NCCC[C@H](NC(=O)[C@@H]1CCCN1C(=O)[C@H](CCCNC(=N)N)NC(=O)[C@@H]1CCC(=O)N1)C(=O)N[C@@H](CC1CCCCC1)C(=O)N[C@H]1CSSC[C@@H](C(=O)N[C@@H](Cc2ccccc2)C(=O)O)NC(=O)[C@H](CC2CCCCC2)NC(=O)[C@@H]2CCCN2C(=O)CNC(=O)[C@H](CCCCN)NC(=O)[C@H](Cc2c[nH]cn2)NC1=O"}, "B11": {"name": "Example 13: pE-R-P-R-L-C-H-K-G-P-Nle-C-f-OH (peptide)", "peptide": "[pGlu]RPRLCHKGP[Nle]C[dF]-OH", "modifications": "disulfide 6-12", "SMILES": "CCCC[C@@H]1NC(=O)[C@@H]2CCCN2C(=O)CNC(=O)[C@H](CCCCN)NC(=O)[C@H](Cc2c[nH]cn2)NC(=O)[C@@H](NC(=O)[C@H](CC(C)C)NC(=O)[C@H](CCCNC(=N)N)NC(=O)[C@@H]2CCCN2C(=O)[C@H](CCCNC(=N)N)NC(=O)[C@@H]2CCC(=O)N2)CSSC[C@@H](C(=O)N[C@H](Cc2ccccc2)C(=O)O)NC1=O"}, "B12": {"name": "Example 16: H-R-P-R-L-C-H-K-G-P-Nle-C-F-OH (peptide)", "peptide": "H-RPRLCHKGP[Nle]CF-OH", "modifications": "disulfide 5-11", "SMILES": "CCCC[C@@H]1NC(=O)[C@@H]2CCCN2C(=O)CNC(=O)[C@H](CCCCN)NC(=O)[C@H](Cc2c[nH]cn2)NC(=O)[C@@H](NC(=O)[C@H](CC(C)C)NC(=O)[C@H](CCCNC(=N)N)NC(=O)[C@@H]2CCCN2C(=O)[C@@H](N)CCCNC(=N)N)CSSC[C@@H](C(=O)N[C@@H](Cc2ccccc2)C(=O)O)NC1=O"}, "B13": {"name": "Example 1: pE-R-P-R-L-K-H-F-G-P-Nle-D-Phenethylamine (peptide)", "peptide": "[pGlu]RPRLKHFGP[Nle]D-NHPhenethyl", "modifications": "lactam 6-12", "SMILES": "CCCC[C@@H]1NC(=O)[C@@H]2CCCN2C(=O)CNC(=O)[C@H](Cc2ccccc2)NC(=O)[C@H](Cc2c[nH]cn2)NC(=O)[C@@H](NC(=O)[C@H](CC(C)C)NC(=O)[C@H](CCCNC(=N)N)NC(=O)[C@@H]2CCCN2C(=O)[C@H](CCCNC(=N)N)NC(=O)[C@@H]2CCC(=O)N2)CCCCNC(=O)C[C@@H](C(=O)NCCc2ccccc2)NC1=O"}}, "note": "Bridges are numbered along the chain shown (N, C = ends). Where no end group is shown, it is not given here. [ ]: non-standard residue; d: D form. The star is where a group is joined. Cha = N[C@@H](CC1CCCCC1)C(=O)O; pGlu = O=C1CC[C@@H](C(=O)O)N1; NHPhenethyl = c1ccc(CCN*)cc1; Nle = CCCC[C@H](N)C(=O)O; Api = NC1(C(=O)O)CCNCC1; Aib = CC(C)(N)C(=O)O; Inp = O=C(O)C1CCNCC1", "data": [{"target": "T1, human APJ receptor (hAPJ) (human, UniProt P35414 1-380)", "T1 sequence (looked up)": "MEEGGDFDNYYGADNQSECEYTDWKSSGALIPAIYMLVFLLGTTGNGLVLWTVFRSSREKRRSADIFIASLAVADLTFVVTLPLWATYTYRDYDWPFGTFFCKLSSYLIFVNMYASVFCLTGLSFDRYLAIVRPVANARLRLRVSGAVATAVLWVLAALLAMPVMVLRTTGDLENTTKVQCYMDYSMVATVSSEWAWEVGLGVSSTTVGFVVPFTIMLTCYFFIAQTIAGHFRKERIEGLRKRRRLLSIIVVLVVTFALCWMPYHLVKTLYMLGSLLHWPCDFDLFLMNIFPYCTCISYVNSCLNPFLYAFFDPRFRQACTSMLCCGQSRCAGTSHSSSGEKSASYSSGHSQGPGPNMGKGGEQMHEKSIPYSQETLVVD", "experiment": "cell-based or functional assay", "units": {"hAPJ Ca2+ Flux EC50": "nM"}, "values": [{"binder": "[pGlu]RPRLCHKGP[Nle]C-NHPhenethyl (disulfide 6-12)", "note": "[Example 12: pE-R-P-R-L-C-H-K-G-P-Nle-C-Phenethylamine]", "hAPJ Ca2+ Flux EC50": 2.07}, {"binder": "B1", "hAPJ Ca2+ Flux EC50": 8.46}, {"binder": "B2", "hAPJ Ca2+ Flux EC50": 3.52}, {"binder": "B3", "hAPJ Ca2+ Flux EC50": 75.8}, {"binder": "B4", "hAPJ Ca2+ Flux EC50": 173}, {"binder": "B5", "hAPJ Ca2+ Flux EC50": 3.53}, {"binder": "B6", "hAPJ Ca2+ Flux EC50": 2.54}, {"binder": "B7", "hAPJ Ca2+ Flux EC50": 133}, {"binder": "B8", "hAPJ Ca2+ Flux EC50": 3.29}, {"binder": "B9", "hAPJ Ca2+ Flux EC50": 1.62}, {"binder": "B10", "hAPJ Ca2+ Flux EC50": 8.83}, {"binder": "B11", "hAPJ Ca2+ Flux EC50": 2.26}, {"binder": "B12", "hAPJ Ca2+ Flux EC50": 1.43}, {"binder": "B13", "hAPJ Ca2+ Flux EC50": 90.1}]}]}
